According to patent US20100092481A1 (INSTITUTE FOR RESEARCH IN BIOMEDICINE, published 2010):

B1: 4I22 (antibody, V domains shown)
VH: QVQLVESGGGVVQPGRSLRLSCVASGFTFSSYAMHWVRQAPGKGLEWVAVISYDGDNKFYADSVKGRFRISRDTSKNTLYLEMNSLRAADTAIYYCAREELVGLMPPYYNYGLDVWGQGTTVTVSS
VL: QSVLTQPPSVSAAPGQKVTISCSGSNSNIGNNYVSWYQQLPGRAPKLLIYDNDHRPSGIPDRFSGSKSGTSATLVITGLQTGDEADYYCETWDTSLSAAVVFGGGTKLTVL
notes: human IgG mAb; also called 4I22-biotin
B2: 4N10 (antibody, V domains shown)
VH: QVQLVQSGAEVKKPGSSVRVSCKASGGTFSSYVIIWVRQAPGQGLEWMGGVIPIFDTVNYAQKFQGRVTITADESTSTAYMELSSLKSEDTAVYYCARGILAYCGGDCYNTPYGMDVWGQGTTVTVSS
VL: DIQMTQSPSILSASVGDRVTITCRASQSISSWLAWYQQKPGKAPKLLIYKASSLEIGVPSRISGSGSGTEFTLTISSLQPDDFATYYCQQYNSSWTFGQGTKVEIK
notes: human IgG mAb; also called 4N10-biotin
B3: 8L13 (antibody, V domains shown)
VH: QVQLLESGGGVVQPGRSLRLSCAASGFTFSNYGMHWVRQAPGKGLEWVAVIWNDGSKKYYAESVKGRFTISRDNSKNTVYLQMNSLRAEDTAVYYCARDEGVQMVFAMPDYGMDVWGQGTTVTVSS
VL: SYELTQPPSVSVSPGQTASITCSGDKLGDKFACWYQQRPGQSPILVIYQDSKRPSGIPERFSGSNSGNTATLTIRGTQAMDEADYYCQAWDSSTAHYVFGTGTKVTVL
notes: human IgG mAb
B4: 10P3 (antibody, V domains shown)
VH: EVQLVESGGGLVRPGGSLRLSCAASGFTFHNYRMNWVRQAPGKGLEWVANIKQDGSEKSYVDSVRGRFTTSRDNSKNSLYLQINSLRAEDTAVYYCARGEGYTYGVVYSYSAMDVWGQGTTVIVSS
VL: SYELTQPPSVSVSPGQTARITCSGNVLPNQYASWYQQKPGQAPVLVIYKDTERPSGIPGRFSGSSSGTTVTLTISGVQAEDEADYYCQSADSSGADYVFGTGTKVTVL
notes: human IgG mAb
B5: 10F7 (antibody, V domains shown)
VH: EVQLVESGGGLVQPGRSLRLSCTASGFTFGDYAMSWFRQAPGKGLEWVGFIRSKAYGGTTEYAASVKGRFTISRDDSKSIAYLQMNSLKTEDTAVYYCTRASSLLWLLNPQPNFDYWGQGTLVTVSS
VL: SYVLTQPPSVSVAPGQTARITCGGNNIGSNNVHWYQQKPGQAPVLVVYDDSDRPSGIPERFSGSNSGNTATLTISRVEAGDEADYYCQVWDSSSDHPVFGGGTKLTVL
notes: human IgG mAb; also called 10F7-biotin
B6: 3G16 (antibody, V domains shown)
VH: QSALTQPASVSGSPGESITISCTGTISDVGAYNSVSWYQQHSGTAPELIIYDVTNRPAGVSSRFSGSKSGNTASLTISWLQSEDEAEYYCSSYTTSDTYVFGSGTQVTVL
V domain: RAQLVQSAAEMKNPGASVKVSCEASGYTFTGYYVHWMRQAPGQGLEWMGWINPMTGATKSPQKFQGRVTMTRDTSTTATHIELTRLRSDDSAVFFCARGGPTSTRITGKRHFDLWGRGTLITVAS
notes: human IgG mAb; also called 3G16-biotin
B7: 15D8 (antibody, V domains shown)
VH: EVQLVQSGAEVKKPGESLKISCQASGYSFTNYWIAWVRQMPGKGLEWMGIIYPGDSDIKYSPSFRGQVTISADKSISNAFLQWRSLRASDTAMYYCARHAIRGDGFDYWGQGTLVTVSS
VL: SYELTQPPSVSVSPGQTATITCSGDKLGEKYACWYQQKPGQSPVLVMYQDTKRPSGIPERFSGSNSGNTATLTISGTRAMDEADYYCQAWDTNTVIFGGGTKLTVL
notes: human IgG mAb; also called 15D8-biotin
B8: 8I21 (antibody, V domains shown)
VH: LVELVESGGGVVQPGRSLRLSCAASGFTFSSDGMHWVRQSPGRGLEWVAFISSDGSTPYYADSVKGRFTISRDNSKNTLYLQMNSLRAEDTAMYFCAKDWALFRWLRTFDHWGQGTLVTVSS
VL: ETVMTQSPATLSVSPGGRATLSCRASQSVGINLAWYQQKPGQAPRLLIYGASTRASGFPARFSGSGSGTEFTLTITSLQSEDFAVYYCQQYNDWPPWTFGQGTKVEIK
notes: human IgG mAb; also called 8I21-biotin

What follows are binders tested against T1, hCMV gH, gL, UL128, UL130 and UL131A co-expressed in HEK293T cells (human cytomegalovirus, UniProt P12824 24-743; P16832 31-278; P16837 1-171; P16772 1-214) (assay: cell cross-competition, 20x excess; competitor 8J16-biotin).
T1 construct: whole, on cells; also called gH + gL + UL128 + UL130 + UL131A; gH/gL/UL128-130 complex
With B1 the “Inhibition of binding (%)” value was 0%.

These binders were tested against T2, hCMV UL130 and UL131A co-expressed in HEK293T cells (human cytomegalovirus, UniProt P16772 1-214) (assay: cell-based or functional assay).
T2 sequence (P16772 whole entry): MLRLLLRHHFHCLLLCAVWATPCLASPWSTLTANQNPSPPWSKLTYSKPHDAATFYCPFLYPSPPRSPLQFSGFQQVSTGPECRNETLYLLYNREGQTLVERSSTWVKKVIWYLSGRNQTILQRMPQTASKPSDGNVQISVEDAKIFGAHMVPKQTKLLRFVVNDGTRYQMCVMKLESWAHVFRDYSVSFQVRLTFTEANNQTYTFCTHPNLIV
B1 was tested, and the “90% Neutralization ARPE (hCMV VR1814)” value was 0.0015 µg/mL and the “90% Neutralization MRC-9 (hCMV VR1814)” value was > 10 µg/mL. B2 was tested, and the “90% Neutralization ARPE (hCMV VR1814)” value was 0.02 µg/mL and the “90% Neutralization MRC-9 (hCMV VR1814)” value was > 10 µg/mL. For B3, the “90% Neutralization ARPE (hCMV VR1814)” value was 0.001 µg/mL and the “90% Neutralization MRC-9 (hCMV VR1814)” value was > 10 µg/mL. In the case of B4, the “90% Neutralization ARPE (hCMV VR1814)” value is reported as 0.0025 µg/mL and the “90% Neutralization MRC-9 (hCMV VR1814)” value is reported as > 10 µg/mL. For B5, the “90% Neutralization ARPE (hCMV VR1814)” value was 0.002 µg/mL and the “90% Neutralization MRC-9 (hCMV VR1814)” value was > 10 µg/mL.

These binders were tested against T1, hCMV gH, gL, UL128, UL130 and UL131A … (assay: cell cross-competition, 20x excess; competitor 6G4-biotin).
In the case of B6, the “Inhibition of binding (%)” value is reported as 0%. In the case of B2, the “Inhibition of binding (%)” value is reported as 0%. With B7 the “Inhibition of binding (%)” value was 0%. In the case of B8, the “Inhibition of binding (%)” value is reported as 0%. With B4 the “Inhibition of binding (%)” value was 0%. With B5 the “Inhibition of binding (%)” value was 0%.

The binders below were run against T1, hCMV gH, gL, UL128, UL130 and UL131A … (assay: cell cross-competition, 20x excess; competitor 15D8-biotin).
With B2 the “Inhibition of binding (%)” value was 0%. With B7 the “Inhibition of binding (%)” value was 100%. With B8 the “Inhibition of binding (%)” value was 0%. B4 was tested, and the “Inhibition of binding (%)” value was 0%. In the case of B5, the “Inhibition of binding (%)” value is reported as 0%.

The binders below were run against T1, hCMV gH, gL, UL128, UL130 and UL131A … (assay: cell cross-competition, 20x excess; competitor 10F7-biotin).
In the case of B1, the “Inhibition of binding (%)” value is reported as 100%. In the case of B2, the “Inhibition of binding (%)” value is reported as 0%. B3 was tested, and the “Inhibition of binding (%)” value was 100%. B7 was tested, and the “Inhibition of binding (%)” value was 0%. In the case of B5, the “Inhibition of binding (%)” value is reported as 100%.

Molecular target: T2, hCMV UL130 and UL131A co-expressed in …
Assay: cell-based or functional assay
Remark: another data set of the same source
With B1 the “50% Neutralization ARPE (hCMV VR1814)” value was < 0.01 µg/mL and the “50% Neutralization MRC-9 (hCMV VR1814)” value was > 2 µg/mL. In the case of B2, the “50% Neutralization ARPE (hCMV VR1814)” value is reported as < 0.001 µg/mL and the “50% Neutralization MRC-9 (hCMV VR1814)” value is reported as ≤ 2 µg/mL. For B3, the “50% Neutralization ARPE (hCMV VR1814)” value was < 0.01 µg/mL and the “50% Neutralization MRC-9 (hCMV VR1814)” value was > 2 µg/mL. For B4, the “50% Neutralization ARPE (hCMV VR1814)” value was < 0.001 µg/mL and the “50% Neutralization MRC-9 (hCMV VR1814)” value was > 2 µg/mL. B5 was tested, and the “50% Neutralization ARPE (hCMV VR1814)” value was < 0.01 µg/mL and the “50% Neutralization MRC-9 (hCMV VR1814)” value was ≤ 2 µg/mL.

Each binder was assayed against T1, hCMV gH, gL, UL128, UL130 and UL131A … (assay: cell cross-competition, 20x excess; competitor 1F11-biotin).
B1 was tested, and the “Inhibition of binding (%)” value was 100%. In the case of B2, the “Inhibition of binding (%)” value is reported as 0%. B3 was tested, and the “Inhibition of binding (%)” value was 100%. In the case of B7, the “Inhibition of binding (%)” value is reported as 0%. B8 was tested, and the “Inhibition of binding (%)” value was 0%. For B4, the “Inhibition of binding (%)” value was 0%. In the case of B5, the “Inhibition of binding (%)” value is reported as 100%.

Each binder was assayed against T1, hCMV gH, gL, UL128, UL130 and UL131A … (assay: cell cross-competition, 20x excess; competitor 8I21-biotin).
In the case of B1, the “Inhibition of binding (%)” value is reported as 0%. For B6, the “Inhibition of binding (%)” value was 0%. With B2 the “Inhibition of binding (%)” value was 90%. In the case of B7, the “Inhibition of binding (%)” value is reported as 0%. For B8, the “Inhibition of binding (%)” value was 100%. In the case of B4, the “Inhibition of binding (%)” value is reported as 0%. With B5 the “Inhibition of binding (%)” value was 0%.

The binders below were run against T1, hCMV gH, gL, UL128, UL130 and UL131A … (assay: cell cross-competition, 20x excess; competitor 5A2-biotin).
For B1, the “Inhibition of binding (%)” value was 0%. B2 was tested, and the “Inhibition of binding (%)” value was 100%. In the case of B7, the “Inhibition of binding (%)” value is reported as 0%. B8 was tested, and the “Inhibition of binding (%)” value was 95%. For B5, the “Inhibition of binding (%)” value was 0%.

The binders below were run against T1, hCMV gH, gL, UL128, UL130 and UL131A … (assay: cell cross-competition, 20x excess; competitor 4I22-biotin).
With B1 the “Inhibition of binding (%)” value was 100%. B2 was tested, and the “Inhibition of binding (%)” value was 0%. For B7, the “Inhibition of binding (%)” value was 0%. In the case of B8, the “Inhibition of binding (%)” value is reported as 0%. In the case of B4, the “Inhibition of binding (%)” value is reported as 0%. With B5 the “Inhibition of binding (%)” value was 100%.

The binders below were run against T1, hCMV gH, gL, UL128, UL130 and UL131A … (assay: cell cross-competition, 20x excess; competitor 4N10-biotin).
For B1, the “Inhibition of binding (%)” value was 0%. With B2 the “Inhibition of binding (%)” value was 100%. In the case of B7, the “Inhibition of binding (%)” value is reported as 0%. For B8, the “Inhibition of binding (%)” value was 90%. In the case of B5, the “Inhibition of binding (%)” value is reported as 0%.

These binders were tested against T1, hCMV gH, gL, UL128, UL130 and UL131A … (assay: cell cross-competition, 20x excess; competitor 2C12-biotin).
With B1 the “Inhibition of binding (%)” value was 0%. In the case of B6, the “Inhibition of binding (%)” value is reported as 0%. With B2 the “Inhibition of binding (%)” value was 0%. For B7, the “Inhibition of binding (%)” value was 0%. For B8, the “Inhibition of binding (%)” value was 0%. With B4 the “Inhibition of binding (%)” value was 0%. With B5 the “Inhibition of binding (%)” value was 0%.

These binders were tested against T1, hCMV gH, gL, UL128, UL130 and UL131A … (assay: cell cross-competition, 20x excess; competitor 2F4-biotin).
In the case of B1, the “Inhibition of binding (%)” value is reported as 100%. With B2 the “Inhibition of binding (%)” value was 0%. For B7, the “Inhibition of binding (%)” value was 0%. For B8, the “Inhibition of binding (%)” value was 0%. In the case of B4, the “Inhibition of binding (%)” value is reported as 0%. In the case of B5, the “Inhibition of binding (%)” value is reported as 100%.
